Assay [1] deals with human coagulation factor X (FX), full-length zymogen (human) (UniProt P00742).
The target is the same in assay [2]. Put plainly: SPR (Biacore T100); human FX immobilised on CM5 chip, inhibitor injected; heterogeneous ligand model.
Assay [3] addresses mouse coagulation factor X (mouse) (UniProt O88947). Put plainly: SPR (Biacore T100); mouse FX immobilised on CM5 chip, inhibitor injected; heterogeneous ligand model. (SPR reads the build-up and loss of mass on a sensor chip optically.)

Where two headings read alike, the source gives them in different places.

As a reminder, the Kd is the free concentration of one partner at which half of the binding sites on the other are occupied at equilibrium, for simple one-to-one binding. The low end stands for a tighter complex, the high end for a looser complex. For orientation: koff means the first-order rate constant of dissociation. The low end stands for a long-lived complex, the high end for a short-lived complex. The term kon denotes the second-order rate constant of association. A high value points to fast association.

Ixolaris, 12 kDa two-Kunitz domain protein isolated from tick salivary gland, sequence (Q964Q0 27-165 limits assumed): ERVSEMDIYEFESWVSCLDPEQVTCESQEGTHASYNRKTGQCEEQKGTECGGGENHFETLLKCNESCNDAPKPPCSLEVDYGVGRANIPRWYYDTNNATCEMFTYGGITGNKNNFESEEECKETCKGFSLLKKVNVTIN
human coagulation factor X (FX), full-length zymogen (human), sequence (P00742 41-488 limits assumed): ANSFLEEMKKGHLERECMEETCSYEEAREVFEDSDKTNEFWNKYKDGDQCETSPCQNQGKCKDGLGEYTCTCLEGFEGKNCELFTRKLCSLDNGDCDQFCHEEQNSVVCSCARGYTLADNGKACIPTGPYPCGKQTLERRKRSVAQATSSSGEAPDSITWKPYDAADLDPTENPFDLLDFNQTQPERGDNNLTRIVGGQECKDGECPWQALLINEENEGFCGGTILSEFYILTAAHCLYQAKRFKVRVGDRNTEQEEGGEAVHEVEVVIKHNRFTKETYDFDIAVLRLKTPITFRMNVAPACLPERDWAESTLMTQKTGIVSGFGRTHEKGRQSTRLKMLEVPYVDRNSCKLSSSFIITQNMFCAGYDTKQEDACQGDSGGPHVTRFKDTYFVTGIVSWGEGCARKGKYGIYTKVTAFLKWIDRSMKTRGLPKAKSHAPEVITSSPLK
mouse coagulation factor X (mouse), sequence (O88947 41-481 limits assumed): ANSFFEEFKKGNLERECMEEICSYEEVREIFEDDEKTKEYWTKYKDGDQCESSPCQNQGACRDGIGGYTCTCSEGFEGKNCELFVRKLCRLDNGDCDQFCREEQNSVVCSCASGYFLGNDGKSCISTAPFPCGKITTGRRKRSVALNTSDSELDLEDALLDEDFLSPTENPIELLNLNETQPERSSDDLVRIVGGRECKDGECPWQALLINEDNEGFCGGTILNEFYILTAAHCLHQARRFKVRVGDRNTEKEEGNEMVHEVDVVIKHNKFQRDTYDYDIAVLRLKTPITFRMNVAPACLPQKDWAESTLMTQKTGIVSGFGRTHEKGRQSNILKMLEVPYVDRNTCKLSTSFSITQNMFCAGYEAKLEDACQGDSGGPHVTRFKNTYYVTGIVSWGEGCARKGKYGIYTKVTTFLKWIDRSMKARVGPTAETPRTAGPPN

On to “Ixolaris, 12 kDa two-Kunitz domain protein isolated from tick salivary gland (from UniProt Q964Q0 27-165) (other; other documents disagree on this pair)”, for which, in assay [1], the Kd was determined as 1.3 nM, the dissociation rate constant (koff) worked out at 0.000175 s⁻¹ and the association rate constant (kon) worked out at 135000 M⁻¹ s⁻¹.
Consider “nematode anticoagulant peptide-2 (NAPc2)”, for which, in assay [2], the dissociation constant (Kd) is 0.0728 nM, the koff is 0.000623 s⁻¹ and the kon amounted to 8.6e+06 M⁻¹ s⁻¹. Further, in assay [3], the dissociation constant (Kd) came out at 17 nM, the off-rate constant (koff) was 0.31 s⁻¹ and the association rate constant (kon) is 1.8e+07 M⁻¹ s⁻¹.

For the origin of these results see US20110104788A1.
